To fix the notation:
B1: antibody 1F3-1F4 (antibody, human IgG1, kappa, V domains shown)
VH: EVQLVESGGGLVQPGGSLRLSCAASGDIFTGSSMSWVRQAPGKGLEWVSGIYASGSDKRYADSVKGRFTISRDNSKNTLYLQMNSLRAEDTAVYYCARAELLAFDVYTASDYWGQGTLVTVSS
VL: DIQMTQSPSSLSASVGDRVTITCRASQGISSYLAWYQQKPGKAPKLLIYAASSLQSGVPSRFSGSGSGTDFTLTISSLQPEDFATYYCQQHYTTPPTFGQGTKVEIKR
B2: antibody 1G8-1C10 (antibody, human IgG1, kappa, V domains shown)
VH: EVQLVESGGGLVQPGGSLRLSCAASGFNFSDYSMSWVRQAPGKGLEWVSRIKASSGGSDYADSVKGRFTISRDNSKNTLYLQMNSLRAEDTAVYYCARQTEDRSYGYDLDYWGQGTLVTVSS
VL: B1 VL
B3: antibody 1G8-2C6 (antibody, human IgG1, kappa, V domains shown)
VH: B2 VH with F27D, D31S, S33A, K52Y, A53G, S55D, G56S, G57T, S58P
VL: B1 VL
B4: antibody 1G8-2H4 (antibody, human IgG1, kappa, V domains shown)
VH: EVQLVESGGGLVQPGGSLRLSCAASGDSFTGYAMSWVRQAPGKGLEWVSAISGSGGSTYYADSVKGRFTISRDNSKNTLYLQMNSLRAEDTAVYYCARQTEDRSYGYDLDYWGQGTLVTVSS
VL: B1 VL
B5: antibody 1G8-2F2 (antibody, human IgG1, kappa, V domains shown)
VH: B4 VH with S28I, T30G, G31S, A50R, G53S, S54H, G56A, T58R, Y59D
VL: B1 VL
B6: antibody 1G8-2H8 (antibody, human IgG1, kappa, V domains shown)
VH: B4 VH with S28I, T30G, G31S
VL: B1 VL
B7: antibody 1G8-2F11 (antibody, human IgG1, kappa, V domains shown)
VH: EVQLVESGGGLVQPGGSLRLSCAASGYTFGSNAMSWVRQAPGKGLEWVSRISPDSSGISYADSVKGRFTISRDNSKNTLYLQMNSLRAEDTAVYYCARQTEDRSYGYDLDYWGQGTLVTVSS
VL: B1 VL
B8: antibody 1G8-1E10 (antibody, human IgG1, kappa, V domains shown)
VH: B4 VH with T30S, G31T, A50R, G56D, S57G, T58K, Y59D
VL: B1 VL
B9: antibody 1G8-1G3 (antibody, human IgG1, kappa, V domains shown)
VH: B2 VH with S30G, D31T, S33A, K52S, A53G, S54I, G56A, S58T, D59N
VL: B1 VL
B10: antibody 1F3-2D2 (antibody, human IgG1, kappa, V domains shown)
VH: EVQLVESGGGLVQPGGSLRLSCAASGFNFSSYGMSWVRQAPGKGLEWVSRISPYTGTTHYADSVKGRFTISRDNSKNTLYLQMNSLRAEDTAVYYCARAELLAFDVYTASDYWGQGTLVTVSS
VL: B1 VL
B11: antibody 1F3-1F8 (antibody, human IgG1, kappa, V domains shown)
VH: B10 VH with S30G, S31N, P53G, Y54D, T55G, G56S, T57N, T58I, H59N
VL: B1 VL
B12: antibody 1F3-1A9 (antibody, human IgG1, kappa, V domains shown)
VH: B10 VH with F27Y, N28S, S30D, S31N, G33A, Y54T, T55G, T57Y, T58A, H59S
VL: B1 VL
B13: antibody 1F3-1D12 (antibody, human IgG1, kappa, V domains shown)
VH: B1 VH with D27Y, I28N, G31D, S32Y, S33G, Y52S, A53G, S56D, D57N, R59Y
VL: B1 VL
B14: antibody 1F3-1C4 (antibody, human IgG1, kappa, V domains shown)
VH: B10 VH with N28T, S30G, S31D, R50G, S52K, Y54W, T55G, G56S, T57G, H59Y
VL: B1 VL
B15: antibody 1G8-2G8 (antibody, human IgG1, kappa, V domains shown)
VH: B4 VH with D27F, S28N, G31N, A50R, G53T, S54Y, G56D, S57T, Y59H
VL: B1 VL
B16: 10F4-1C7 scFv (scFv, V domains shown)
VH: EVQLVESGGGLVQPGGSLRLSCAASGDSFDNYWMSWVRQAPGKGLEWVSAIDTHSDNSFYADSVKGRFTISRDNSKNTLYLQMNSLRAEDTAVYYCAREYSDVVDYVSVRTPLDYWGQGTLVTVSS
VL: B1 VL
notes: phage clone supernatant
B17: 1G8-1C12 scFv (scFv, V domains shown)
VH: EVQLVESGGGLVQPGGSLRLSCAASGGSFYGFGMSWVRQAPGKGLEWVSGIYSHDADKRYADSVKGRFTISRDNSKNTLYLQMNSLRAEDTAVYYCARQTEDRSYGYDLDYWGQGTLVTVSS
VL: B1 VL
notes: phage clone supernatant
B18: 10F4-2B11 scFv (scFv, V domains shown)
VH: B16 VH with D27G, D30T, A50V, T53S, H54T, S55G, D56S, S58R
VL: B1 VL
notes: phage clone supernatant
B19: 10F4-1F1 scFv (scFv, V domains shown)
VH: B16 VH with D27F, D30S, D52S, T53P, H54G, S55D, D56G, N57T, S58I
VL: B1 VL
notes: phage clone supernatant
B20: 10F4-1E1 scFv (scFv, V domains shown)
VH: B16 VH with S28I, D30G, A50S, T53A, H54S, D56G, S58R
VL: B1 VL
notes: phage clone supernatant
B21: 10F4-2C2 scFv (scFv, V domains shown)
VH: B16 VH with D27F, S28N, D30S, A50V, T53A, D56A, S58I, F59R
VL: B1 VL
notes: phage clone supernatant
B22: antibody 1F3-1E4 (antibody, human IgG1, kappa, V domains shown)
VH: B10 VH with N28S, S30G, S31T, P53G, Y54D, T55S, G56A, T57N, T58I, H59R
VL: B1 VL

Positions count from the first letter of the chain named.

One test deals with T1, human Nectin-4 extracellular antigen hNectin-4-His (human, UniProt Q96NY8 32-349).
T1 construct: C-terminal 8xHis tag included
T1 sequence: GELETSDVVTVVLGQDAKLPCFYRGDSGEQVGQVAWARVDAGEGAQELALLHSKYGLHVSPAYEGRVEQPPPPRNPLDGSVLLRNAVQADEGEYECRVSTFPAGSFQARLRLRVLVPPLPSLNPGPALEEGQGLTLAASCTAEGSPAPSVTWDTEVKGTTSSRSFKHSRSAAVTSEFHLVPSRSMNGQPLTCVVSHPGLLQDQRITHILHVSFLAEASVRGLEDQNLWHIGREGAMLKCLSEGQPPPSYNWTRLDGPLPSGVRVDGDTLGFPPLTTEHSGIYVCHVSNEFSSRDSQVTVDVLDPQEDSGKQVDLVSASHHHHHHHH
As to the kind of experiment: ELISA, coated hNectin-4-His. From the text:
The binding activity of the antibodies was detected by ELISA.
Molecule B1 yielded a half-maximal effective concentration (EC50) of 9 ng/mL.
For the molecule B2, the EC50 was 5 ng/mL.
Still for that read-out and setting: the same measure for B3: 5 ng/mL.
Still for that read-out and setting: in the case of B4 it was 39 ng/mL.
Still for that read-out and setting: in the case of B5 it was 12 ng/mL.
On to B6, for which the half-maximal effective concentration (EC50) amounted to 5 ng/mL.
The same measure, in the same setting: the same measure for B7: 4 ng/mL; for B8: 6 ng/mL; for B9: 4 ng/mL.
In turn, B10 came in with an EC50 of 15 ng/mL.
In turn, B11 yielded an EC50 of 8 ng/mL.
The same measure, in the same setting: in the case of B12 it was 7 ng/mL.
Molecule B13 gave an EC50 of 7 ng/mL.
Still for that read-out and setting: the same measure for B14: 11 ng/mL; for B15: 6 ng/mL.

The target of the next test is T1, human Nectin-4 extracellular antigen …. Briefly: ELISA, phage scFv supernatant 1:50. A general note: ELISA stands for enzyme-linked immunosorbent assay.
Turning to B16, the OD value turned out to be 1.57 OD.
B17 displayed an OD value of 1.42 OD.
The same measure, in the same setting: in the case of B18 it was 1.55 OD.
Still for that read-out and setting: in the case of B19 it was 1.63 OD.
Still for that read-out and setting: in the case of B20 it was 1.63 OD; in that of B21, 1.58 OD.

The target is the same in another test. As to the kind of experiment: SPR, antibody on Protein A chip, 1:1 fit. The text has this:
In this study, the affinity of the antibodies for the human Nectin-4 extracellular antigen was detected by surface plasmon resonance (SPR) technique (BIAcore: GE Healthcare, T200).
For orientation: SPR reads the build-up and loss of mass on a sensor chip optically.
With B3, the Kd was found to be 1.87 nM, the koff is 0.00137 s⁻¹ and the kon was 734000 M⁻¹ s⁻¹.
For B22, in that order: 0.426 nM, 0.000825 s⁻¹ and 1.94e+06 M⁻¹ s⁻¹.
For B5, in that order: 2.12 nM, 0.00166 s⁻¹ and 784000 M⁻¹ s⁻¹.
For B8, in that order: 1.31 nM, 0.00087 s⁻¹ and 665000 M⁻¹ s⁻¹.
On to B9, for which the Kd stood at 3 nM, the off-rate constant (koff) turned out to be 0.00141 s⁻¹ and the kon is 471000 M⁻¹ s⁻¹.
The molecule B11 had a Kd of 0.564 nM, a koff of 0.000966 s⁻¹ and a kon of 1.71e+06 M⁻¹ s⁻¹.
For B12, in that order: 0.641 nM, 0.000994 s⁻¹ and 1.55e+06 M⁻¹ s⁻¹.
For B15, in that order: 1.87 nM, 0.00142 s⁻¹ and 758000 M⁻¹ s⁻¹.

By EC50 is commonly meant the concentration needed to bring the measured effect to its halfway point. By Kd is commonly meant the equilibrium constant for the complex coming apart. Usually koff stands for the first-order rate constant of dissociation. Higher therefore signals fast dissociation. The kon is the rate constant with which the complex forms.

The record behind these values is patent publication US20260144882A1 (BIO THERA SOLUTIONS, published 2026).
